Reference: the RNAGym collection of RNA variant scans (doi:10.7554/elife.80360)

B1: HDV Ribozyme (parent)
chain: GGCCGGCAUGGUCCCAGCCUCCUCGCUGGCGCCGGCUGGGCAACAUUCCGAGGGGACCGUCCCCUCGGUAAUGGCGAAUGGGACCCA

Variants of: B1
Test: self-cleavage, relative activity (ratio to wild type); higher = more cleavage; co-transcriptional

| Variant | self-cleavage |
| --- | --- |
| GGACGGCAUGGUCCCAGCCUCCUCGCUGGCGCCGGCUGGGCAACAUUCCGAGGAGACCGUCCCCUCGGUAAUGGCGAAUGGGACCCA | 0.369 |
| GGCCGACAUGGUCCUAGCCUCCUCGCUGGCGCCGGCUGGGCAACAUUCCGAGGGGACCGUCCCCUCGGUAAUGGCGAAUGGGACCCA | 0.431 |
| GGCCGGCAUGCUCCCAGCCUCCUCGCUGGCGCCGCCUGGGCAACAUUCCGAGGGGACCGUCCCCUCGGUAAUGGCGAAUGGGACCCA | 0.151 |
| GGCCGGCAUGGUCCCAGCCUCCUCGCUGGCGCCGGCUGGGCAACAUUCCGCGGUGACCGUCCCCUCGGUAAUGGCGAAUGGGACCCA | 0.659 |
| GGCCGGCAUGGACCCAGCCUCCUCGCUGGCGCCGGCUGGGCAACAUUCCGAGGGGACCGUCCCCUCGGUAAUGGCGAAUGGGAUCCA | 0.519 |
| GGCCGGCAUGGUCCCAGCCUCCUCGCUGGCGCCGGCUGGGCAACAUUCCGAGGGGACCGUCCCCUCGGUAAUGGACAAUGGGACCCA | 0.166 |
| GGCCGGCAUGGUCCCAGCCUCCUCGCUGGCGCCGGCUGGGCAACAUUCCGAGGGGACCGUCCCCUCGGCAAUGGCGAAUGGGACGCA | 0.988 |
| GGCCGGCAUUGUCCCAGCCUCCCCGCUGGCGCCGGCUGGGCAACAUUCCGAGGGGACCGUCCCCUCGGUAAUGGCGAAUGGGACCCA | 0.62 |
| GGCCGGCAUGGUCCGAGCCUCCUCGCUGGCGCCGGCUGGGCAACAUUCCGAGGGGACCGUCCCCUCGGUAAUGGCGAAUGGGAUCCA | 0.302 |
| GGCGGGCAUGGUCCCAGCCUCCUCGCUGGCGCCGCCUGGGCAACAUUCCGAGGGGACCGUCCCCUCGGUAAUGGCGAAUGGGACCCA | 0.13 |
| GGCCGGCUUGGUCCCAGCCUCCUCGCUGGCGCCGGCUGGGCAACAUUCCGAGGGGACCGUCCCCUCCGUAAUGGCGAAUGGGACCCA | 0.718 |
| GGCCGGCCUGGUCCCAGCCUCCUCGCUGGCGCCUGCUGGGCAACAUUCCGAGGGGACCGUCCCCUCGGUAAUGGCGAAUGGGACCCA | 0.104 |
| GGCCGGCAUGGUCCCAGCCGCCUCGCUGGCGCCGGCUGGGCAACAUUCCGAGGGGACAGUCCCCUCGGUAAUGGCGAAUGGGACCCA | 0.266 |
| GGCCGGCAUGGUCCCAGCCUCCUCGCUGGCGCCGGCUGGGCAACAUUCCGAGGGGACCGUCCCCUCGGUAAUGGCGAAUGGGGCCCA | 0.806 |
| GGCCGGCAUGGUCCCAGCUUCCUCGCUGGCGCCGGCUGGGCAACAUUCCGAGGGGACCGUCCCCUCGUUAAUGGCGAAUGGGACCCA | 0.168 |
| GGCCGGCAUGGUCCCAGCCUCCUCGCUGGCGCCGGCUGCGCAACAUUCCGAGGGGACCGUCCCCUCGGUAAUGGCGAAUGGGAGCCA | 0.0462 |

| Variant | self-cleavage |
| --- | --- |
| GGCCGGCAUGGUCCCAGCCUCCACGGUGGCGCCGGCUGGGCAACAUUCCGAGGGGACCGUCCCCUCGGUAAUGGCGAAUGGGACCCA | 0.978 |
| GGCCCGCAUGGUCCCAGCCUCCUCGCUGGCGCCGGCUGGGUAACAUUCCGAGGGGACCGUCCCCUCGGUAAUGGCGAAUGGGACCCA | 0.277 |
| GGCCGGCAUUGUCCCAGCCUCCUCGCUGGCGCCGGCUGGGCAACAUUCCGAGGGGACCGUCCCCGCGGUAAUGGCGAAUGGGACCCA | 0.619 |
| GGCCGGCAUGGUCCCAGCCUCCGCGCUGGCGCCGGCUGGACAACAUUCCGAGGGGACCGUCCCCUCGGUAAUGGCGAAUGGGACCCA | 0.76 |
| GGGCGGCAUGGUCCCAGCCUCCUCGCUGGCGCCGGCUGGGCAACAUUCCAAGGGGACCGUCCCCUCGGUAAUGGCGAAUGGGACCCA | 0.589 |
| GGCCGGCAUGGUCCCAGCCUCCUCUCUGGCGCCGGCUGGGCAACAUUCCGAGGGGUCCGUCCCCUCGGUAAUGGCGAAUGGGACCCA | 0.249 |
| GGCCGGCAUGGUCCCAGCCACCUCGCUGGCGCCGGCUGGGCAACAUUCCGAGGGGACCGUCCCCUCGGUAAUGGCGAAUGGGACCAA | 0.0723 |
| GGCCGGCAUGGUCCCAGCCUCCUCGCUGGCGCCGGCUGGGCAACAUUCCGAGGGUACCGUCCGCUCGGUAAUGGCGAAUGGGACCCA | 0.695 |
| GGCCGGCAUGGUCCCAGCCUCCUCGCUGGCGCCGGCUGGGCAACAUUCCGAGGGCACCGUCCCCUCGGUAAUGGCGAAUGGGACGCA | 1.15 |
| GGCCGGCAUGAUCCCAGCCUCCUCGCUGGCGCCGGCUGGGCAACAUUCCGAGGGGACCUUCCCCUCGGUAAUGGCGAAUGGGACCCA | 0.408 |
| GGCCGGCAUGGUCCCAGCCUCCUCGCUGGCGCCGGCUGGGCAACAUUCCGAGGGGACCGUCCCCACGGUAAUGGCGAAUGGGCCCCA | 0.504 |
| GGCCGGCAUCGUCCCAGCCUCCUCGCUGGCGCCGGCUGGGCAAGAUUCCGAGGGGACCGUCCCCUCGGUAAUGGCGAAUGGGACCCA | 0.415 |
| GGCCGGCAUGGUCCCACCCUCCUCGCUGGAGCCGGCUGGGCAACAUUCCGAGGGGACCGUCCCCUCGGUAAUGGCGAAUGGGACCCA | 0.342 |
| GGCCGGCAUGGUCCCAGCCUCCUCGCUGGCGCCGCCGGGGCAACAUUCCGAGGGGACCGUCCCCUCGGUAAUGGCGAAUGGGACCCA | 0.0504 |
| GGCCGGCAUGGUCCCAGCCUCCUCACUGGCGCCGGCUGGGCAACAGUCCGAGGGGACCGUCCCCUCGGUAAUGGCGAAUGGGACCCA | 0.262 |
| GGCCGGCAUGGUCCCAGCCUCCUGGCUGGCGCCGGCUGGGCAACAUUCCGAGGGCACCGUCCCCUCGGUAAUGGCGAAUGGGACCCA | 0.0656 |
